In patent WO2023219147A1:

Biological target: human CCR8 (human)
Test: flow cytometry on CD4-gated tumor-infiltrating cells of ovarian cancer; APC-labeled L263G8 2 ug/mL

positive rate of the FoxP3-positive CCR8-positive fraction: 46.6%
Substance: anti-human CCR8 antibody L263G8 (BioLegend)
